{
  "source": "paper PMC7856282",
  "about": "(Nature biomedical engineering, 2020)",
  "assay": "Dynamic light scattering",
  "type": "physicochemical",
  "conditions": "PBS, 100 mM MgCl2; insulin 25 µM, dAb 1 mg/mL; Figure S2 and S3",
  "data": [
    {"substance": "insulin: human insulin obtained from R&D Systems; analyte of the assay", "values": [
      {"measurement": "aggregation under buffer conditions (DLS)", "result": "No aggregation"}
    ]}
  ]
}
